Assay results as given in paper PMC4586175 (Oncogene, 2009).

Molecular target: purified GST-RACK1 (human, UniProt P63244 1-317)
Experiment: pull-down

B1: purified His-WRN protein (natural protein)
chain: not shown
**Q.** Does B1 bind?
**A.** binds
